We go through five molecules from PMC8989681, “Functional and structural deficiencies of Gemin5 variants associated with neurological disorders” (Life Science Alliance, 2022).

Data set [1] deals with 80S ribosomes, P05388;P63244. The experiment in a line: sedimentation with native ribosomes (80S fraction), immunoblot quantification. Particulars: chain shown with the change; HEK293 cells expressing Xpress-tagged G5845-1508 proteins; parent: est. 1.0; read off a plot. For orientation: In western blotting, separated proteins are transferred to a membrane and probed.
Data set [2] deals with the molecule itself. The experiment in a line: SEC-MALS; 250 ul of purified TPR-like domain at 1-3 mg/ml on Superdex 200 10/300; 20 mM Tris-HCl pH 6.8, 0.2 M NaCl, 5% glycerol, 1 mM DTT; 0.5 ml/min.

B1: Xpress-G5_(845-1508)-WT, Q8TEQ6 D1019E (protein)
chain: ARSLLPLSTSLDHRSKEELHQDCLVLATAKHSRELNEDVSADVEERFHLGLFTDRATLYRMIDIEGKGHLENGHPELFHQLMLWKGDLKGVLQTAAERGELTDNLVAMAPAAGYHVWLWAVEAFAKQLCFQDQYVKAASHLLSIHKVYEAVELLKSNHFYREAIAIAKARLRPEEPVLKDLYLSWGTVLERDGHYAVAAKCYLGATCAYDAAKVLAKKGDAASLRTAAELAAIVGEDELSASLALRCAQELLLANNWVGAQEALQLHESLQGQRLVFCLLELLSRHLEEKQLSEGKSSSSYHTWNTGTEGPFVERVTAVWKSIFSLDTPEQYQEAFQKLQNIKYPSATNNTPAKQLLLHICHDLTLAVLSQQMASWDEAVQALLRAVVRSYDSGSFTIMQEVYSAFLPDGCDHLRDKLGDHQSPATPAFKSLEAFFLYGRLYEFWWSLSRPCPNSSVWVRAGHRTLSVEPSQQLDTASTEETDPETSQPEPNRPSELDLRLTEEGERMLSTFKELFSEKHASLQNSQRTVAEVQETLAEMIRQHQKSQLCKSTANGPDKNEPEVEAEQPLCSSQSQCKEEKNEPLSLPELTKRLTEANQRMAKFPESIKAWPFPDVLECCLVLLLIRSHFPGCLAQEMQQQAQELLQKYGNTKTYRRHCQTFCM
Take B1: the other: G5845-1508 intensity 80S/S30 in data set [1] is 0.46.

B2: Xpress-G5_(845-1508)-WT, Q8TEQ6 R1016C (protein)
chain: ARSLLPLSTSLDHRSKEELHQDCLVLATAKHSRELNEDVSADVEERFHLGLFTDRATLYRMIDIEGKGHLENGHPELFHQLMLWKGDLKGVLQTAAERGELTDNLVAMAPAAGYHVWLWAVEAFAKQLCFQDQYVKAASHLLSIHKVYEAVELLKSNHFYREAIAIAKARLCPEDPVLKDLYLSWGTVLERDGHYAVAAKCYLGATCAYDAAKVLAKKGDAASLRTAAELAAIVGEDELSASLALRCAQELLLANNWVGAQEALQLHESLQGQRLVFCLLELLSRHLEEKQLSEGKSSSSYHTWNTGTEGPFVERVTAVWKSIFSLDTPEQYQEAFQKLQNIKYPSATNNTPAKQLLLHICHDLTLAVLSQQMASWDEAVQALLRAVVRSYDSGSFTIMQEVYSAFLPDGCDHLRDKLGDHQSPATPAFKSLEAFFLYGRLYEFWWSLSRPCPNSSVWVRAGHRTLSVEPSQQLDTASTEETDPETSQPEPNRPSELDLRLTEEGERMLSTFKELFSEKHASLQNSQRTVAEVQETLAEMIRQHQKSQLCKSTANGPDKNEPEVEAEQPLCSSQSQCKEEKNEPLSLPELTKRLTEANQRMAKFPESIKAWPFPDVLECCLVLLLIRSHFPGCLAQEMQQQAQELLQKYGNTKTYRRHCQTFCM
On to B2, for which the other: G5845-1508 intensity 80S/S30 in data set [1] worked out at 0.51.

B3: Xpress-G5_(845-1508)-WT, Q8TEQ6 A951E (protein)
chain: ARSLLPLSTSLDHRSKEELHQDCLVLATAKHSRELNEDVSADVEERFHLGLFTDRATLYRMIDIEGKGHLENGHPELFHQLMLWKGDLKGVLQTAAERGELTDNLVEMAPAAGYHVWLWAVEAFAKQLCFQDQYVKAASHLLSIHKVYEAVELLKSNHFYREAIAIAKARLRPEDPVLKDLYLSWGTVLERDGHYAVAAKCYLGATCAYDAAKVLAKKGDAASLRTAAELAAIVGEDELSASLALRCAQELLLANNWVGAQEALQLHESLQGQRLVFCLLELLSRHLEEKQLSEGKSSSSYHTWNTGTEGPFVERVTAVWKSIFSLDTPEQYQEAFQKLQNIKYPSATNNTPAKQLLLHICHDLTLAVLSQQMASWDEAVQALLRAVVRSYDSGSFTIMQEVYSAFLPDGCDHLRDKLGDHQSPATPAFKSLEAFFLYGRLYEFWWSLSRPCPNSSVWVRAGHRTLSVEPSQQLDTASTEETDPETSQPEPNRPSELDLRLTEEGERMLSTFKELFSEKHASLQNSQRTVAEVQETLAEMIRQHQKSQLCKSTANGPDKNEPEVEAEQPLCSSQSQCKEEKNEPLSLPELTKRLTEANQRMAKFPESIKAWPFPDVLECCLVLLLIRSHFPGCLAQEMQQQAQELLQKYGNTKTYRRHCQTFCM
In the case of B3, in data set [1], the other: G5845-1508 intensity 80S/S30 was 0.48.

B4: Gemin5 TPR-like dimerization domain R1016C (domain or fragment, human, UniProt Q8TEQ6 845-1097, looked up)
chain: ARSLLPLSTSLDHRSKEELHQDCLVLATAKHSRELNEDVSADVEERFHLGLFTDRATLYRMIDIEGKGHLENGHPELFHQLMLWKGDLKGVLQTAAERGELTDNLVAMAPAAGYHVWLWAVEAFAKQLCFQDQYVKAASHLLSIHKVYEAVELLKSNHFYREAIAIAKARLCPEDPVLKDLYLSWGTVLERDGHYAVAAKCYLGATCAYDAAKVLAKKGDAASLRTAAELAAIVGEDELSASLALRCAQELLL
notes: Tag cut by PreScission protease; also called TPR-like R1016C; source: E. coli BL21-Rosetta (DE3) pLysS, purified (HisTrap, tag cleavage, SEC in 0.2 M NaCl); not shown: His6, N-terminal, cleaved; MBP, N-terminal, cleaved
With B4, in data set [2], the stoichiometry N (in general, a count of units in the complex or per binding partner) was determined as 2.

B5: Gemin5 TPR-like dimerization domain D1019E (domain or fragment, human, UniProt Q8TEQ6 845-1097, looked up)
chain: ARSLLPLSTSLDHRSKEELHQDCLVLATAKHSRELNEDVSADVEERFHLGLFTDRATLYRMIDIEGKGHLENGHPELFHQLMLWKGDLKGVLQTAAERGELTDNLVAMAPAAGYHVWLWAVEAFAKQLCFQDQYVKAASHLLSIHKVYEAVELLKSNHFYREAIAIAKARLRPEEPVLKDLYLSWGTVLERDGHYAVAAKCYLGATCAYDAAKVLAKKGDAASLRTAAELAAIVGEDELSASLALRCAQELLL
notes: Tag cut by PreScission protease; also called TPR-like D1019E; source: E. coli BL21-Rosetta (DE3) pLysS, purified (HisTrap, tag cleavage, SEC in 0.2 M NaCl); not shown: His6, N-terminal, cleaved; MBP, N-terminal, cleaved
On to B5, for which the “stoichiometry N” value in data set [2] amounted to 2.
